How the values were obtained:
Assay in all cases: EMSA
[1] = tested on: ResR/McdR (ResR1-225) (Mycobacterium tuberculosis Erdman)
[2] = tested on: ResR/McdR17-225 (Mycobacterium tuberculosis Erdman)
[3] = tested on: ResR/McdRMS (Mycobacterium smegmatis)

For PrplN_FL, the Kd [1] was 780 nM, the Kd [2] was 1170 nM and the Kd [3] was 1400 nM.
In the case of PwhiB2_FL, the Kd [1] is reported as 330 nM.
